Experimental findings from the DeepSol protein solubility set are described below.

A short description of this series: soluble on expression in E. coli; label from the status in PepcDB or PDB records.
As for “MARFNAAFTRIKIMFSRIRGLISCQSNTQTIAPTLSPPSSGHVSFAGIDYPLLPLNHQTPLVFQWFERNPDRFGQNEIPIINTQKNPYLNNIINAAIIEKERIIGIFVDGDFSKGQRKALGKLEQNYRNIKVIYNSDLNYSMYDKKLTTIYLENITKLEAQSASERDEVLLNGVKKSLEDVLKNNPEETLISSHNKDKGHLWFDFYRNLFLLKGSDAFLEAGKPGCHHLQPGGGCIYLDADMLLTDKLGTLYLPDGIAIHVSRKDNHVSLENGIIAVNRSEHPALIKGLEIMHSKPYGDPYNDWLSKGLRHYFDGSHIQDYDAFCDFIEFKHENIIMNTSSLTASSWR”, the “soluble on expression in E. coli” value is “not soluble”.

In the case of “MARLSGILADSDIQALIDNNFLKALWPFDAAQIQPASLDLRLGEKAYRIRASFMPGADVRVLDKLERLKLHEFDLRDGAVLETGCVYIVPLLENLALPEILSAIANPKSSTGRLDIFTRVITDNAQEFDKICVGYHGPLYLEISPRTFPILVRTGSRLFQLRFRKGHSYLNEIELHALHRDETLISDDLPNISAGGIGLSINLKGDENGLVGYRGKRHTSVIDIDKHAVANILDFWEPLFDRGQRELILDPDEFYILVSRESVHVPPLYAAEMTPFDPLVGEFRVHYAGFFDPGFGHMEAGGKGARAVLEVRSHEVPFILEHGQIIGRLVYEQMLKRPLALYGEDSGSHYQAQGLKLSKHFR”, the “soluble on expression in E. coli” value is on record as “not soluble”.

With “MARSFKVLSPTAILGYGFPEESFRKAMAESPDLIAVDAGSSDPGPHYLGAGKPFTDRAGVKRDLRYMITAGVQNNIPVVIGTAGGSGAAPHLEWCREIIHEIAREEHLSFSMALIPADVDKAIVHQALDNGKITALDFVPPLTHDAIDESTYIVAQMGIEPFQRALKERAQVVLGGRAYDPACFAALPIMQGFDEGLALHCGKILECAAIAATPGSGSDCAMGIIDDNGFTLKTFNPKRKFTETSAAAHTLYEKSDPYFLPGPGGVLNLKGCTFKAVNDGEVYVSGSKHEETPYALKLEGARRVGFRCLTIAGTRDPIMIAGIDKIIDEVKTSVSRNLSLDDDSIRINFHLYGKNGVMGDHEPMQTAGHELGIVLDVVAPTQEIANSVCSLVRSTMLHYGYENRIATAGNLAFPFSPSDIQGGPVYEFSIYHLIEANDALRFDFHIEQVTPEGVQA”, the “soluble on expression in E. coli” value is on record as “soluble”. As for “MARTEIWLRLMYVGDLYGEAMLNMANSLIRQPQINRTHLQEAGLTARQAERFLQLPAGVLDETLRWLELPQHHFLCADSEIYPPQLRAIDDYPGAIFIDGDPACLHTCQLAVVGSRSHSWYGERWGRLLCESLAKSGLTITSGLARGIDGVAHNAAVSMGGKSVAVLGNGLAKIYPRRHAMLAENLIATGGAVVSEFPLSTPPLPQHFPRRNRIISGLSKGVLVIEAALRSGSLVTARCALEQGRDVFALPGPIGSPGSEGTHWLIKQGATLVTTPEDILENLQYGLHWLPTTAENSLYSLNQDEAALPFPELLANVGDEVTPVDVVAERAGQPVPAVVAQLLELELAGWIAAVPGGYVRLRRASHVRRTNVFV”, the entry is “not soluble”.

For “MARTVFCEYLKKEAEGLDFQLYPGELGKRIFDSVSKQAWGEWIKKQTMLVNEKKLNMMNAEHRKLLEQEMVNFLFEGKDVHIEGYVPPSN”, the “soluble on expression in E. coli” value is given as “not soluble”. The value for “MARVYVSTVVNARNDRVWARVRDFNGLPNWHPAIAESRIEGGEPSDKIGCVRDFRLRNGDRIREKLLGLSDYDMFCTYSILESPMGVENYVATLRLTPVTDGDQTFMEWTAEFDCAPERETELVNNIGGGVFQGGFDALKRVFGGLEHHHHHH” was “soluble”; that for “MASDRKRQIIEAAAQSFAAFGYKATTMEQIAKLANVGKGTIYTFFKSKEELLDEIVSGLIMEIKAEAELAMDSSLPFSENVHRALYRILEFRQRHQLTAKLLQEVRNIGTVAVQEVLAKLDRAMVEFIRQKIDAAVEKGEIRPCNSEITAFLMLKTYIALIVDWEKDHEPLTKEQIAELFTLYFLQGLSR” was “not soluble”; that for “MASDTPGFYMDKLNKYRQMHGVAITYKELSTSGPPHDRRFTFQVLIDEKEFPEAKGRSKQEARNAAAKLAVDILDNENKVDCHT” was “soluble”. Regarding “MASEDKFESVLSTRYCKNSPLVSILSETNKATLWRQLWIWLAEAEKELGLKQVTQDAIDEMKSNRDVFDWPFIRSEERKLKHDVMAHNHAFGKLCPTAAGIIHLGATSCFVQDNADLIAYRDSIDHILKRFATVIDRLAAFSLKNKEVVTVGRTHYQTASLVTVGKRGVLWAQELLMAFQSLSEFRDKMRFRGIKGATGTQDSFLTLFAGDESKVEALDELVTKKANFSNRFLITGQTYSRQQDSQLVFSLSLLGAAAKKVCTDIRVLQAFGELLEPFEKDQIGSSAMPYKKNPMKSERCCALSRKLINAPQEALTILADQGLERTLDDSAGRRMLIPDVLLTAEALLTTLQNIFEGLSVQTDNVKKIVEDEIAFLGLEKAMMMLTEEGVDRQQAHAVIRKTALEAKQLQATQKVDIRQTMADPFFDSVRDRVVGLVNNPINFTGRCVSQTESFIAKELKPTIDKYLDKSAGNVQLDV”, the “soluble on expression in E. coli” value is “soluble”. Regarding “MASFPFLMTPETMNKLVTPNSASISSSSSSPSTSTSFSIDTLLSNPLAGIPQLHNFQDPFGAVGAAAAASALPWQFHPANYPFFSMLCGPLMPPFMAPYHHQHYASRRKRRHRTIFSEEQLNILETTFSTTHYPDATTREELAVQCSLKEERVEVWFKNRRAKERKQKKDDSRTSKHSGDDSECDESDEDTRKVKRIKRENSSGKETSSPESKASLKTSHSENLVLEPC”, the “soluble on expression in E. coli” value is given as “not soluble”.

With “MASGKATSLYSHAEIFLPSKQESGIKKKSGEETQQTKGATIESSRINQNRAERTQRFQTQCSKRKPYEIRQGIPERSSSKQDPGNKTASIEHRGRENPSETHES”, the “soluble on expression in E. coli” value is given as “not soluble”.

Take “MASIAIEYHSVVLGMERKVNVIYPDQSEIPKKDQGDKDIPVLYLLHGMGGNENSWQKRTAIERLLRHTNLIVVMPSTDLGWYTDTAYGLNYYRALSQELPQVLAAFFPNMTQKREKTFVAGLSMGGYGAFKWALKSNRFSYAASFSGALDFSPETLLEGKLGELAYWQGVFGQFDDPDLDKHYLKNMVAESDGKTKFYAWCGYEDFLFATNEKAIADFQAQGLDIDYHKGHGKHEWYYWNQQLEVLLEWLPINYQKEERLS”: the “soluble on expression in E. coli” value is on record as “not soluble”.

In the case of “MASIKLYFDKRVNRKDGKFPLKINVTHKRQQALINLGVLLSPDQWDSTKGKVINGPNKSFLNGYISQRVHCAETELLNLRIAGKLDLMTGKQFKEHLQRILLRGKLEEKQEETGCSFVQYYTRFVEGKKNPQTKAVYQYTLDRICRFVDVPDKFRFEDVTYAWLKSFEIHLSETSKVNSISIHMRNIRAVFNDALNTETISCYPFRRFKIKQEATAKRALTPEELVTLRDYPCEEHQKQYVDIFMLIFYLVGINTVDLCRLEKIRNGRIEYRRAKTKKIYNIKVEPEAAEIIERYKGSKYLLNILERYKNYKDYAHRLNENLQEIGSVELVEKVINGKRRRVKKRFPLFPELTVYWARHTWATIAHKIGVSKDVISLALGHEFGCKTTSIYIDYDMEKVDKANRQVLDYLENLK”, the “soluble on expression in E. coli” value is “not soluble”. Regarding “MASISSLGVGSNLPLDQLLTDLTKNEKGRLTPITKQQSANSAKLTAYGTLKSALEKFQTANTALNKADLFKSTVASSTTEDLKVSTTAGAAAGTYKINVTQLAAAQSLATKTTFATTKEQLGDTSVTSRTIKIEQPGRKEPLEIKLDKGDTSMEAIRDAINDADSGIAASIVKVKENEFQLVLTANSGTDNTMKITVEGDTKLNDLLAYDSTTNTGNMQELVKAENAKLNVNGIDIERQSNTVTDAPQGITLTLTKKVTDATVTVTKDDTKAKEAIKSWVDAYNSLVDTFSSLTKYTAVEPGEEASDKNGALLGDSVVRTIQTGIRAQFANSGSNSAFKTMAEIGITQDGTSGKLKIDDDKLTKVLKDNTAAARELLVGDGKETGITTKIATEVKSYLADDGIIDNAQDNVNATLKSLTKQYLSVSNSIDETVARYKAQFTQLDTMMSKLNNTSSYLTQQFTAMNKS”, the “soluble on expression in E. coli” value is given as “not soluble”. As for “MASISTPFPISLHPKTVRSKPLKFRVLTRPIKASGSETPDLTVATRTGSKDLPIRNIPGNYGLPIVGPIKDRWDYFYDQGAEEFFKSRIRKYNSTVYRVNMPPGAFIAENPQVVALLDGKSFPVLFDVDKVEKKDLFTGTYMPSTELTGGYRILSYLDPSEPKHEKLKNLLFFLLKSSRNRIFPEFQATYSELFDSLEKELSLKGKADFGGSSDGTAFNFLARAFYGTNPADTKLKADAPGLITKWVLFNLHPLLSIGLPRVIEEPLIHTFSLPPALVKSDYQRLYEFFLESAGEILVEADKLGISREEATHNLLFATCFNTWGGMKILFPNMVKRIGRAGHQVHNRLAEEIRSVIKSNGGELTMGAIEKMELTKSVVYECLRFEPPVTAQYGRAKKDLVIESHDAAFKVKAGEMLYGYQPLATRDPKIFDRADEFVPERFVGEEGEKLLRHVLWSNGPETETPTVGNKQCAGKDFVVLVARLFVIEIFRRYDSFDIEVGTSPLGSSVNFSSLRKASF”, the entry is “soluble”; as for “MASKDAQVTLSRGEQSVKRIKEFNPKKDNFSILLMGIDARPGQSMDKERSDAMVLATFNRKDKSVKLLSIPRDSYVNIPGRGYDKITHAHSLGGRDLSTETVENLLDIPVDYVMEANFSAFKEVVDELGGVPITIKEDYIVRQIKKDTKGKVNLQTGEQTLGGEEALAYVRTRKADTDLKRGERQMEVIKSIINKSKSLTSIPAYDDILDTVGKNVSMNLSLNDAIGLIPFMTSIQTVDTLQLKGSDYQPGKVYYFQLDQENLNEIKQELKQQLDVLEHHHHHH”, “soluble”. As for “MASLNCHDKCSTTTQSDINLKDELLSSTSIECRPGNDLLESLHKEQNRWYSETKTFSDSSQHTGRGFEKYWFCYGIKCYYFVMDRKTWSGCKQTCQISSLSLLKIDNEDELKFLKLLVPSDSYWIGLSYDNKKKDWAWINNGPSKLALNTMKYNIRDGGCMLLSKTRLDNDNCDKSFICICGKRLDKFPH”, the entry is “soluble”. On to “MASMTGGQQMGRGSSTSLYKKAGLMPSPMEDIEEILITEEQLKAKVKELGEMITRDYEGKDLVLIGVLKGAIMFMSGLSRAIDLPLSIDFLAVSSYGSSTKSSGIVKIIKDHDIDIEGKDVLIVEDIIDSGLTLAYLRETLLGRKPRSLKICTILDKPERREADVKVDYCGFKIPDKFVVGYGLDYAEKYRNLPFIGVLKPELYK”, for which the “soluble on expression in E. coli” value is listed as “soluble”. In the case of “MASMTGGQQMGRIPGNSPRMVLLESEQFLTELTRLFQKCRSSGSVFITLKKYDGRTKPIPRKSSVEGLEPAENKCLLRATDGKRKISTVVSSKEVNKFQMAYSNLLRANMDGLKKRDKKNKSKKSKPAQGGEQKLISEEDDSAGSPMPQFQTWEEFSRAAEKLYLADPMKVRVVLKYRHVDGNLCIKVTDDLVCLVYRTDQAQDVKKIEKFHSQLMRLMVAKESRNVTMETE”, the “soluble on expression in E. coli” value is reported as “soluble”. Consider “MASPDEDNPGILYNGRFDFSDPNGPKCAWSGSNVELNFYGTEASVTIKSGGENWFQAIVDGNPLPPFSVNATTSTVKLVSGLAEGAHHLVLWKRTEASLGEVQFLGFDFGSGKLLAAPKPLERKIEFIGDSITCAYGNEGTSKEQSFTPKNENSYMSYAAITARNLNASANMIAWSGIGLTMNYGGAPGPLIMDRYPYTLPYSGVRWDFSKYVPQVVVINLGTNDFSTSFADKTKFVTAYKNLISEVRRNYPDAHIFCCVGPMLWGTGLDLCRSYVTEVVNDCNRSGDLKVYFVEFPQQDGSTGYGEDWHPSIATHQLMAERLTAEIKNKLGWLEHHHHHH”, for which the “soluble on expression in E. coli” value is recorded as “soluble”. “MASQAASKAVTFAYNGTIASTLRKFAWSNLWGGREYGLQFHDTYFEPAPEVTEALRRLNLQEPHVFDQRKIRLSRAHTLALHGEKLPKAEWTQWDQESWYLKPYLDEIEAEKKARAETSGLIPPYQMKQH”: the “soluble on expression in E. coli” value was “not soluble”.
